Ends that are not written are not given here.
Target: the molecule itself
Assay: analytical ultracentrifugation; self-association of the peptide

B1: Construct 12 (AP6) (peptide)
peptide: CGGGEIWKQHEEALKKLFAFHFILPFIIMAIAMVHLLFLFGEGL
modifications: also: acetylated (position not given here)
notes: Designed amphiphilic helical peptide made by solid-phase synthesis; Heme cofactors may have been present; also called amphiphilic construct AP6
  binding result: binds
